Reference: patent US20250353907A1 (SHANGHAI SIMNOVA BIOTECHNOLOGY, published 2025)

Target: T1, recombinant human CD19-His (human, UniProt P15391 20-291, limits assumed)
T1 construct: This is the analyte in SPR; also called human CD19 protein; CD19 antigen protein; not shown: His tag
T1 sequence (looked up): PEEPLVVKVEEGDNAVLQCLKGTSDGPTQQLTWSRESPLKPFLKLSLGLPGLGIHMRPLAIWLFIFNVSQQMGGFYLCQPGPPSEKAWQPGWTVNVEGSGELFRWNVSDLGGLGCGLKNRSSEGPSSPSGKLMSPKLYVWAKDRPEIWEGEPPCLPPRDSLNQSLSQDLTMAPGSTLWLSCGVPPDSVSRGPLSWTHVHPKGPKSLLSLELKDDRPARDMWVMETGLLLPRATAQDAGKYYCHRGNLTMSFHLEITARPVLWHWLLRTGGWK
Experiment: SPR (Biacore), CD19-His as analyte, 1:1 Langmuir model
Procedure: The anti-human CD19 antibody was captured using a Protein A chip (GE Healthcare; 29-127-558).
The sample and running buffer was HBS-EP+ (10 mM HEPES, 150 mM NaCl, 3 mM EDTA, 0.05% surfactant P20) (GE Healthcare; BR-1006-69). The flow cell was set at 25° C. The sample block was set at 16° C. Both were pretreated with the running buffer. In each cycle, first, the antibody to be tested was captured using the Protein A chip, and then a single concentration of CD19 antigen protein was injected. The association and dissociation processes of the antibody with the antigen protein were recorded, and finally, the chip was regenerated using Glycine pH 1.5 (GE Healthcare; BR-1003-54). The association was determined by injecting different concentrations of recombinant human CD19-His in the solution and maintaining for 240 s, wherein the flow rate was 30 μL/min, and the protein was diluted in a 1:1 dilution ratio from 200 nM (see detailed results for actual concentrations tested) to obtain 5 concentrations in total. The dissociation phase was monitored for up to 600 s and triggered by switching from the sample solution to the running buffer. The surface was regenerated by washing with 10 mM glycine solution (pH 1.5) at a flow rate of 30 μL/min for 30 s. The difference in bulk refractive index was corrected by subtracting the responses obtained from the […]. Blank injections were also subtracted (=double reference). The Langmuir 1:1 model was used to calculate the apparent KD and other kinetic parameters.

Kd: 0.0195 nM | koff: 1.8e-06 s⁻¹ | kon: 92400 M⁻¹ s⁻¹
B1: hFMC63 (humanized FMC63, hFMC63-VH1 + hFMC63-VL1) (antibody, V domains shown)
VH: EVTLKESGPVLVKPTETLTLTCTVSGFSLSDYGVSWIRQPPGKALEWLAVIWGSETTYYNSALKSRLTISKDTSKSQVVLTMTNMDPVDTATYYCAKHYYYGGSYAMDYWGQGTTVTVSS
VL: DIQMTQSPSSLSASVGDRVTITCRASQDISKYLNWYQQKPGGAVKLLIYHTSRLHSGVPSRFSGSGSGTDYTLTISSLQPEDFATYYCQQGNTLPYTFGGGTKVEIK
